This is an account of results in patent publication US20100159560.

Data set [1] has as its target T1, Streptomyces subtilisin inhibitor (SSI) derived from actinomycetes, P01006.
T1 chain: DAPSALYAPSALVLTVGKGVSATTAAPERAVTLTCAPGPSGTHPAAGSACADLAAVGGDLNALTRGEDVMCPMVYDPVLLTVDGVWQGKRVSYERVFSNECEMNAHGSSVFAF

Data set [2] addresses T2, protransglutaminase of Streptoverticillium mobaraense IFO13819 (pro-MTG), P81453.
T2 chain: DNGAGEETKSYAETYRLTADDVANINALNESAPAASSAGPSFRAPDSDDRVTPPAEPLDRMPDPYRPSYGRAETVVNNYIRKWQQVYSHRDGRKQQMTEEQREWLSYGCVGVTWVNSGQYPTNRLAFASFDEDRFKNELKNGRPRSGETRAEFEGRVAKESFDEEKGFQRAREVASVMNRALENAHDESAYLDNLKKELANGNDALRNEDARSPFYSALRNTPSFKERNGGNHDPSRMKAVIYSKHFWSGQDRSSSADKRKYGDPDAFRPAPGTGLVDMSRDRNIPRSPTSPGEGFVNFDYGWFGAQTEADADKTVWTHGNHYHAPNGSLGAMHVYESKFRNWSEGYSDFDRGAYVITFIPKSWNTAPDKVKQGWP

In data set [3] the target is T3, synthetic peptide Gly-Pro-Ser-Phe-Arg-Ala-Pro-Asp-Ser.
T3 chain: GPSFRAPDS

B1: neutral metalloprotease SVP35 from Streptoverticillium mobaraense IFO13819 (protein)
chain: GTGTSTYSGTVPLTTTKSGSQYQLNDGARGGHKTYDLNQGTSGTGSLFTNSTDTWGGGRQTAGVDAHYGAAVTWDFYKNVFGRNGIRNDGKAAYSRVHYGNSYVNAFWSDSCFCMTYGDGQNNKNPLTALDVAAHEMSHGVTAATAKLVYSGESGGLNEATSDIFGTAVEFYANNKTDVGDYLIGEKINIYGDGKPLRYMDKPSKDGKSKDSWYSGIGGVDVHYSSGPANHFFYLLSEGSGKKTINGVDYDSPTADGSKVTGIGRDKAQKIWYKALTTQFTSNTNYAKARTGTLNAAASLYGNNSAEYKAVAAAWSAINVK
On to B1, for which the “relative activity (Gly-Pro-Ser-Phe-Arg-Ala-Pro-Asp-Ser cleavage activity, absence of compounds = 100%)” value in data set [1] is “strongly inhibited”. The “cleavage points (HPLC separation and sequencing of peptide fragments)” value with insulin B is given as “cleaved before (at the N-terminal of) especially Phe, often Leu, sometimes Tyr, Trp, Ile, Val”. Moreover, in data set [2], the “cleavage points (HPLC separation and sequencing of peptide fragments)” value is “cleaved before (at the N-terminal of) especially Phe, often Leu, sometimes Tyr, Trp, Ile, Val”; the “conversion of pro-MTG to mature MTG (SDS-PAGE time course; TG activity by the hydroxamate method), substrate:enzyme = 200:1” value was “pro-MTGs were converted to the mature forms, and the produced MTGs were not reduced even after a long-term reaction”. In data set [3], the “cleavage activity on the peptide substrate (HPLC, decrease of substrate)” value is listed as “SVP35 was allowed to act on Gly-Pro-Ser-Phe-Arg-Ala-Pro-Asp-Ser (SEQ ID NO: 11) as a substrate”.
